For data set [1], the system named is RSV F antibody (11A9). The data set is described as follows: Binding of epitope II of RSV F antigen mutants by flow cytometry. As to conditions: for RSV F antibody (11A9) Epitope II (%): binding rate, 293T cells 16 h after mRNA-LNP transfection. From the text:
(§1) To investigate whether the RSV F antigen mutants have pre-fusion epitopes, an RSV pre-F antibody (3C12) (specifically binding to the RSV pre-F epitope […]) and an RSV F antibody (11A9) (binding to pre-F and post-F epitopes II) were detected by flow cytometry in this example, and RSV F protein mutants in the pre-F conformation were expected to bind to the antibodies tested.
(§2) • 293T cells (purchased from ATCC cell bank); RSV pre-F antibody (3C12), epitope […] (Novoprotein, Cat. No.: DA101); RSV F antibody (11A9), epitope II (Novoprotein, Cat. No.: DA091); • experimental groups: mRNA vaccines corresponding to the expressed antigens in Example 3;
(§3) • (1) Cell transfection: 293T cells were seeded at 1.3×10^5 cells/well in a 24-well plate. The next day, mRNA-LNP samples (containing 300 ng of mRNA) were added directly to the cells, and the mixture was uniformly mixed. • (2) Cell collection: The cells were taken out of the incubator after 16 h of transfection, the medium was pipetted off, 500 μL of 0.1% BSA solution was pipetted to wash the medium remaining in the well plate, taking care not to resuspend the cells, and the 0.1% BSA solution was pipetted off. 500 μL of 0.1% BSA solution was added to each well, and the cells were pipetted and transferred to a 1.5 mL centrifuge tube. • (3) Centrifugation: The cells were harvested by centrifugation at 400 g for 5 min at 4° C. in the dark, and the supernatant was discarded. • (4) Straining: 50.6 μL of RSV fluorescent antibody diluent was added to each of the control sample and the test samples to resuspend the cells, and the samples were incubated at 4° C. for 2 h in the dark. • (5) Cleaning: After the incubation was completed, 500 μL of 0.1% BSA solution was added to each tube, the cells were harvested by centrifugation at 400 g for 5 min at 4° C. in the dark, and the supernatant was discarded. This operation was repeated three times. • (6) Resuspension of cells: 200 μL of 0.1% BSA solution was added to each sample, and the cells were carefully pipetted to prepare a cell suspension. • (7) Detection on flow cytometer: The […] of RSV F mutants to antibodies were measured using flow cytometry, with 1×10^4 cells detected in each measurement.
(§4) The RSV pre-F antibody (3C12) used in this example specifically binds to the RSV pre-F epitope Φ, and the RSV F antibody (11A9) binds to the pre-F and post-F epitopes II. Whether the pre-fusion conformations of the RSV F mutants are stable can be further determined by detecting the binding of the epitope Φ and the epitope II on the mutants to corresponding epitopes of antibodies 3C12 and 11A9, respectively, by flow cytometry.
(In general: A flow cytometer gives signals particle by particle.)

For data set [2], the system named is RSV pre-F antibody (3C12). The data set can be described thus: Binding of epitope Φ of RSV F antigen mutants by flow cytometry. As to conditions: for RSV pre-F antibody (3C12) Epitope Φ (%): binding rate, 293T cells 16 h after mRNA-LNP transfection; for Φ/II (%): ratio of epitope Φ (3C12) to epitope II (11A9) binding rate.
Source text: as §1, §2, §3, §4

For data set [3], the system named is RSV pre-F antibody (3C12). Format: physicochemical. As to conditions: ELISA binding to 3C12; for Stress resistance parameter, Osmotic pressure (mM) 3000: high osmotic pressure 3000 mM; for Stress resistance parameter, Osmotic pressure (mM) 3000 / Stress resistance parameter, Osmotic pressure (mM) 10: room temperature; for Stress resistance parameter, Osmotic pressure (mM) 3000 / Stress resistance parameter, Osmotic pressure (mM) 10 / Stress resistance parameter, pH 3.5 / Stress resistance parameter, pH 10: 60 min; for Stress resistance parameter, Temperature (° C.) 50: incubation at 50° C. for 60 min; for Stress resistance parameter, Osmotic pressure (mM) 10: low osmotic pressure 10 mM; for Stress resistance parameter, pH 3.5: pH 3.5, room temperature; for Stress resistance parameter, pH 10: pH 10, room temperature; for Stress resistance parameter, Temperature (° C.) 4: storage at 4° C. for one week. The text has this: To investigate the stability of the RSV F antigen mutants under different pH, temperature, osmotic pressure and other conditions, the mutants were subjected to stress tests under different treatment conditions in this example.
• 293T cells (purchased from ATCC cell bank); • Primary antibody: RSV pre-F antibody (3C12), epitope Φ (purchased from Suzhou Novoprotein Scientific Co., Ltd. (hereinafter referred to as Novoprotein), Cat. No.: DA101); • Standard: RSV pre-F trimer protein (Novoprotein, Cat. No.: DRA230); • Secondary antibody: peroxidase AffiniPure goat anti-human IgG (H+L) (purchased from Yeasen Biotechnology (Shanghai) Co., Ltd. (hereinafter referred to as Yeasen), Cat. No.: N/A); • Experimental group: mRNA vaccines after screening in Example 4;
Coating: A 96-well microplate was coated with a working solution and incubated at 2 to 8° C. for 16 to 20 h.
Plate washing: Phosphate buffered saline PBST was added to each well, and the plate was washed 5 times using a plate washer and patted dry on absorbent paper.
Blocking: After a blocking solution was added, the […] were placed on a constant temperature microplate shaker and incubated at 400 rpm for 1.5 h at 37° C.
Plate washing: PBST was added to each well, and the plate was washed 5 times using a plate washer and patted dry on absorbent paper.
Primary antibody incubation: A primary antibody dilution was added to each well, and the plate was sealed with a sealing film, and then incubated at 400 rpm for 1.5 h at 37° C.
Secondary antibody incubation: A secondary antibody dilution was added to each well, and the plate was sealed with a sealing film, and then incubated at 400 rpm for 45 min at 37° C.
Color development: A chromogenic solution was added, and the plate was sealed with a sealing film, and then placed on a constant temperature microplate shaker and incubated at 400 rpm for 25 min at 37° C.
Reaction stopping: After the color development was completed, a stop buffer was added at […] to the microplate to stop the reaction.
Plate reading: Absorbance values (OD values) were read within 5 min using a multimode microplate reader, with dual wavelengths of 450 nm and 630 nm set.
In this example, stability screening of the mutants through different treatment conditions was defined as a stress test, including storage at 4° C. for one week; incubation at 50° C. for 60 min; treatment at room temperature under low osmotic pressure and high osmotic pressure conditions for 60 min; treatment at room temperature under acid and base conditions for 60 min. The binding of the mutants to the RSV pre-F antibody (3C12) recognizing the epitope Φ was detected by ELISA.

Positions count from the first letter of the chain named.

As for “RSVA2 (138251)-wt: wild sequence of RSV A2 F protein, full length (1 to 574 aa) [reference compound]”, in data set [1], the “RSV F antibody (11A9) Epitope II (%)” value was 23.1%. For the same molecule, in data set [1] (epitope II, antibody 11A9), the “RSV F antibody (11A9) Epitope II (%) binding rate” value was 23.1%. Also, the “RSV pre-F antibody (3C12) Epitope Φ (%)” value in data set [2] (flow cytometry) came to 1.0%. Besides, the “RSV pre-F antibody (3C12) Epitope Φ (%) binding rate” value in data set [2] (flow cytometry, epitope Φ, antibody 3C12) was 1.0%. The “Φ/II (%)” value in data set [2] was 4.3%.

B1: YK-RSV-022 (protein)
chain: QNITEEFYQSTCSAVSKGYLGALRTGWYTSVITIELSNIKENKCNGTDAKVKLIKQELDKYKNAVTDLQLLMQSTPACGSGSACASGVAVSKVLHLEGEVNKIKSALLSTNKAVVSLSGCGVSVLTFKVLDLKNYIDKQLLPIVNKQSCSIPNIETVIEFQQKNNRLLEITREFSVNAGVTTPVSTYMLTNSELLSLINDMPITNDQKKLMSNNVQIVRQQSYSIMSIIKEEVLAYVVQLPLYGVIDTPCWKLHTSPLCTTNTKEGSNICLTRTDRGWYCDNAGSVSFFPQAETCKVQSNRVFCDTMNSRTLPSEVNLCNVDIFNPKYDCKIMTSKTDVSSSVITSLGAIVSCYGKTKCTASNKCRGIIKTFSNGCDYVSNKGVDTVSVGNTLYYVNKQEGQSLYVKGEPIINFYDPLVFPSSEFDASISQVNEKINQSLAFIRKSDELLHNVNAGKSTTNIMITTIIIVIIVILLSLIAVGLLLY
As to B1, the “RSV F antibody (11A9) Epitope II (%)” value in data set [1] is 2.1%. Also, the “RSV pre-F antibody (3C12) Epitope Φ (%)” value in data set [2] (flow cytometry) turned out to be 0.2%. In addition, in data set [2], the “Φ/II (%)” value was found to be 9.5%.

B2: YK-RSV-038 (protein)
chain: QNITEEFYQSTCSAVSKGYLGALRTGWYTCVITIELSNIKENKCNGTDAKVKLIKQELDKYKNAVTDLQLLMQSTPATGSGSAIASGVAVSKVLHLEGEVNKIKSALLSTNKAVVSLSNGVCVLTFKVLDLKNYIDKQLLPILNKQSCSIPNIETVIEFQQKNNRLLEITREFSVNAGVTTPVSTYMLTNSELLSLINDMPITNDQKKLMSNNVQIVRQQSYSIMSIIKEEVLAYVVQLPLYGVIDTPCWKLHTSPLCTTNTKEGSNICLTRTDRGWYCDNAGSVSFFPQAETCKVQSNRVFCDTMNSRTLPSEVNLCNVDIFNPKYDCKIMTSKTDVSSSVITSLGAIVSCYGKTKCTASNKNRGIIKTFSNGCDYVSNKGVDTVSVGNTLYYVNKQEGQSLYVKGEPIINFYDPLVFPSDEFDASISQVNEKINQSLAFIRKSDELLHNVNAGKSTTNIMITTIIIVIIVILLSLIAVGLLLY
B2: in data set [3], the “Stress resistance parameter, Osmotic pressure (mM) 3000” value turned out to be 0.55 ± 0.13; the “Stress resistance parameter, Temperature (° C.) 50” value turned out to be 0.70 ± 0.10; the “Stress resistance parameter, Osmotic pressure (mM) 10” value (from here on “Stress resistance parameter … (mM) 10”) was 0.74 ± 0.08; the “Stress resistance parameter, pH 3.5” value was determined as 0.88 ± 0.17. In data set [3], the “Stress resistance parameter, pH 10” value is reported as 0.82 ± 0.26 and the “Stress resistance parameter, Temperature (° C.) 4” value is recorded as 0.32 ± 0.08. Further, the “Φ/II (%)” value in data set [2] is 94.8%.

B3: YK-RSV-056 (protein)
chain: B2 chain with C30S, A83C, C122S, S223C
On to B3, for which, in data set [3], the “Stress resistance parameter, Osmotic pressure (mM) 3000” value came out at 0.44 ± 0.08; the “Stress resistance parameter, Temperature (° C.) 50” value is recorded as 0.91 ± 0.09; the “Stress resistance parameter … (mM) 10” value was determined as 0.82 ± 0.07; the “Stress resistance parameter, pH 3.5” value turned out to be 0.64 ± 0.12. In data set [3], the “Stress resistance parameter, pH 10” value stood at 0.72 ± 0.14 and the “Stress resistance parameter, Temperature (° C.) 4” value was 0.69 ± 0.10. For the same molecule, in data set [2], the “Φ/II (%)” value worked out at 97.4%.

B4: YK-RSV-005 (protein)
chain: QNITEEFYQSTCSAVSKGYLGALRTGWYTSVITIELSNIKENKCNGTDAKVKLIKQELDKYKNAVTDLQLLMQSTPATGSGSAICSGVAVCKVLHLEGEVNKIKSALLSTNKAVVSLSNGVSVLTIKVLDLKNYIDKQLLPIVNKQSCSISPIETVIEFQQKNNRLLEITREFSVNAGVTTPVSTYMLTNSELLSLINDMPITNDQKKLMSNNVQIVRQQSYSIMCIIKEEVLAYVVQLPLYGVIDTPCWKLHTSPLCTTNTKEGSNICLTRTDRGWYCDNAGSVSFFPQAETCKVQSNRVFCDTMNSRTLPSEVNLCNVDIFNPKYDCKIMTSKTDVSSSVITSLGAIVSCYGKTKCTASNKNRGIIKTFSNGCDYVSNKGVDTVSVGNTLYCVNKQEGQSLYVKGEPIINFYDPLVFPSSEFDASISQVNEKINQSLAFIRKSDELLHNVNAGKSTTNIMITTIIIVIIVILLSLIAVGLLLY
With B4, in data set [3], the “Stress resistance parameter, Osmotic pressure (mM) 3000” value was 0.47 ± 0.08; the “Stress resistance parameter, Temperature (° C.) 50” value worked out at 0.44 ± 0.06; the “Stress resistance parameter … (mM) 10” value worked out at 0.57 ± 0.00; the “Stress resistance parameter, pH 3.5” value is recorded as 0.64 ± 0.20. Besides, in data set [3], the “Stress resistance parameter, pH 10” value is 0.88 ± 0.14 and the “Stress resistance parameter, Temperature (° C.) 4” value stood at 0.55 ± 0.09. Also, in data set [2], the “Φ/II (%)” value amounted to 96.2%.

B5: YK-RSV-017 (protein)
chain: B2 chain with T33L, A85C, C122S, L124C, L143V, Y394C, D422S
B5: in data set [3], the “Stress resistance parameter, Osmotic pressure (mM) 3000” value was found to be 0.46 ± 0.06; the “Stress resistance parameter, Temperature (° C.) 50” value is on record as 0.60 ± 0.04; the “Stress resistance parameter … (mM) 10” value came out at 0.59 ± 0.03; the “Stress resistance parameter, pH 3.5” value came to 0.76 ± 0.11. In addition, in data set [3], the “Stress resistance parameter, pH 10” value came out at 0.93 ± 0.06 and the “Stress resistance parameter, Temperature (° C.) 4” value was determined as 0.35 ± 0.07. Besides, the “Φ/II (%)” value in data set [2] is on record as 96.5%.

B6: YK-RSV-018 (protein)
chain: B4 chain with Q9C, C91S, I126F, S151P, P152N, T155I, C226S, G407C
Regarding B6, the “RSV F antibody (11A9) Epitope II (%)” value in data set [1] worked out at 76.3%. Besides, the “RSV pre-F antibody (3C12) Epitope Φ (%)” value in data set [2] (flow cytometry) turned out to be 68.4%. Further, the “Φ/II (%)” value in data set [2] is on record as 89.6%.

B7: YK-RSV-014 (protein)
chain: B4 chain with Q9C, C91S, S151P, P152N, C226S, G407C
Consider B7, for which the “RSV F antibody (11A9) Epitope II (%)” value in data set [1] is listed as 0.1%. Besides, the “RSV pre-F antibody (3C12) Epitope Φ (%)” value in data set [2] (flow cytometry) is listed as 0.0%. For the same molecule, the “Φ/II (%)” value in data set [2] is on record as 0.0%.

(Values after US12514920B1, “Respiratory syncytial virus mRNA vaccine, and preparation method therefor and use thereof” (Hangzhou Tianlong Pharmaceutical Co., Ltd., priority 2024, dated 2026).)
